Literature values as cited in patent publication US11419917B2, “Treatment for SARS-CoV-2 and other coronaviruses” (priority 2020, dated 2022).
Entries after “also recorded” stand apart in the source; their conditions may differ. Like-named read-outs stand apart in the source and are kept apart here.

Legend:
[1] = in vivo
[2] = patients treated for 3 days compared to placebo

For “ANP: A-type natriuretic peptide, a 28-amino acid peptide degraded from pro ANP”, the half-life [1] is listed as “approximately 10 minutes; also recorded: several”.

In the case of `CC[C@H](C)[C@@H]1NC(=O)[C@H](CCCNC(=N)N)NC(=O)[C@H](CC(=O)O)NC(=O)[C@H](CCSC)NC(=O)[C@H](CCCNC(=N)N)NC(=O)CNC(=O)CNC(=O)[C@H](Cc2ccccc2)NC(=O)[C@@H](NC(=O)[C@H](CO)NC(=O)[C@H](CO)NC(=O)[C@H](CCCNC(=N)N)NC(=O)[C@H](CCCNC(=N)N)NC(=O)[C@H](CC(C)C)NC(=O)[C@@H](N)CO)CSSC[C@@H](C(=O)N[C@@H](CC(N)=O)C(=O)N[C@@H](CO)C(=O)N[C@@H](Cc2ccccc2)C(=O)N[C@@H](CCCNC(=N)N)C(=O)N[C@@H](Cc2ccc(O)cc2)C(=O)O)NC(=O)CNC(=O)[C@H](CC(C)C)NC(=O)CNC(=O)[C@H](CO)NC(=O)[C@H](CCC(N)=O)NC(=O)[C@H](C)NC(=O)CNC1=O` [Carperitide], the “decrease in infarct size” value [2] is listed as about 15%.

For “BNP: B-type natriuretic peptide, a 32-amino acid peptide; generic name Nesiritide”, the half-life [1] is given as 22 min and the half-life ([1]; listed as B-type NP) is given as 20 min.
